Our source for the stoichiometry N values is article doi:10.1101/2023.12.06.569572.

In the test the target is Neurofibromin (NF1), recombinant full-length NF1 isoform 2 (human) (UniProt P21359). The test is described as follows: mass photometry. The conditions noted are these: remark: other sources report otherwise.

Turning to “Neurofibromin (NF1), recombinant full-length NF1 isoform 2, P21359 1-2839”, the stoichiometry N was determined as 2.
